Biological target: Sp1 (UniProt P08047 2-785)
Assay: EMSA

Sequence of Sp1 (P08047 2-785): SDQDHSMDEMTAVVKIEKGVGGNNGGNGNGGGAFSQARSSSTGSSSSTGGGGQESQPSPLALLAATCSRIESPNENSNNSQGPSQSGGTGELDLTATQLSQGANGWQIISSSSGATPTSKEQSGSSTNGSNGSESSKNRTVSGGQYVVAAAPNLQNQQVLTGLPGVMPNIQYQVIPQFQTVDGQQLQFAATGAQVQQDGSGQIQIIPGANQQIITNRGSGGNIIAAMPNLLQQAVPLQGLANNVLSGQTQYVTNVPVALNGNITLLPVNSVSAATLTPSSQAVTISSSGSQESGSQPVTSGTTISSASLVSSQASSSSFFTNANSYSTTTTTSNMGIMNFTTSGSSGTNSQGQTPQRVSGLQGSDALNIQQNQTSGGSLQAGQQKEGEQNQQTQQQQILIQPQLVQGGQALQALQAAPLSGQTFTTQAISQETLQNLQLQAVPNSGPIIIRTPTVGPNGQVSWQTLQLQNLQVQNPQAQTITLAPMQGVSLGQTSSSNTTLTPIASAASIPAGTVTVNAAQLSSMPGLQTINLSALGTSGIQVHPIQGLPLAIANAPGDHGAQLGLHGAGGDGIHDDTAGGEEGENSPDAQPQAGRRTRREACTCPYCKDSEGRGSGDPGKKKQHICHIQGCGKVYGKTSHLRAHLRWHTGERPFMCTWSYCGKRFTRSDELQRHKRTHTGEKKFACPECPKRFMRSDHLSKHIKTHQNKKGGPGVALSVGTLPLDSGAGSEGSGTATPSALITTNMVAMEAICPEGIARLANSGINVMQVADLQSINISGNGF

Binder	binding result
EZH2 promoter GC-rich oligo, mutant (dsDNA) DNA 1: ACTTGGCTTCCAGCACCCGAAAAGCTTCTCCAACGTTCGGGAACTCTGCGGCGCCG DNA 2: CGGCGCCGCAGAGTTCCCGAACGTTGGAGAAGCTTTTCGGGTGCTGGAAGCCAAGT	no binding
EZH2 promoter GC-rich oligo, wild type (dsDNA) DNA 1: ACTTGGCTTCCAGCACCCGCCCCGCCCCTCCCCCGCCCGGGAACTCTGCGGCGCCG DNA 2: CGGCGCCGCAGAGTTCCCGGGCGGGGGAGGGGCGGGGCGGGTGCTGGAAGCCAAGT	binds

Source: paper PMC4309261
